Test results taken from patent US20160237414A1 (CHILDREN S HOSPITAL MEDICAL CENTER, published 2016).
Positions count from the first letter of the chain named. Names may count otherwise. Primed or numbered codes have the meaning given here. No end group written: not given here. FITC′ = fluorescein isothiocyanate (fluorescent probe)

B1: ASPIIV (SEQ ID NO 16) (D399A) GCase (enzyme)
chain: ARPCIPKSFGYSSVVCVCNATYCDSFDPPTFPALGTFSRYESTRSGRRMELSMGPIQANHTGTGLLLTLQPEQKFQKVKGFGGAMTDAAALNILALSPPAQNLLLKSYFSEEGIGYNIIRVPMASCDFSIRTYTYADTPDDFQLHNFSLPEEDTKLKIPLIHRALQLAQRPVSLLASPWTSPTWLKTNGAVNGKGSLKGQPGDIYHQTWARYFVKFLDAYAEHKLQFWAVTAENEPSAGLLSGYPFQCLGFTPEHQRDFIARDLGPTLANSTHHNVRLLMLDDQRLLLPHWAKVVLTDPEAAKYVHGIAVHWYLDFLAPAKATLGETHRLFPNTMLFASEACVGSKFWEQSVRLGSWDRGMQYSHSIITNLLYHVVGWTDWNLALNPEGGPNWVRNFVASPIIVDITKDTFYKQPMFYHLGHFSKFIPEGSQRVGLVASQKNDLDAVALMHPDGSAVVVVLNRSSKDVPLTIKDPAVGFLETISPGYSIHTYLWRRQ
B2: DSPAIV (SEQ ID NO 17) (I402A) GCase (enzyme)
chain: B1 chain with A399D, I402A
B3: DSPIAV (SEQ ID NO 18) (I403A) GCase (enzyme)
chain: B1 chain with A399D, I403A
B4: DSPAAV (SEQ ID NO 19) (I402A+I403A) GCase, double mutant (enzyme)
chain: B1 chain with A399D, I402A, I403A
B5: AAA GCase (triple alanine mutant in the TKD sequence, amino acids 407-409) (enzyme)
chain: B1 chain with A399D, T407A, K408A, D409A
notes: Made from full length pCMV-GCase-GFP or YFP vectors; also called AAA mutant

How the values were obtained:
[1] = biological target: T1, Purified luminal domain LIMP-2 (ld-LIMP2) (UniProt Q14108 28-433, limits assumed); assay: peptide binding to ldLIMP2 at pH 6.8 (FIG. 9)
T1 construct: domain: luminal domain; also called LIMP-2/SCARB2
T1 sequence (looked up): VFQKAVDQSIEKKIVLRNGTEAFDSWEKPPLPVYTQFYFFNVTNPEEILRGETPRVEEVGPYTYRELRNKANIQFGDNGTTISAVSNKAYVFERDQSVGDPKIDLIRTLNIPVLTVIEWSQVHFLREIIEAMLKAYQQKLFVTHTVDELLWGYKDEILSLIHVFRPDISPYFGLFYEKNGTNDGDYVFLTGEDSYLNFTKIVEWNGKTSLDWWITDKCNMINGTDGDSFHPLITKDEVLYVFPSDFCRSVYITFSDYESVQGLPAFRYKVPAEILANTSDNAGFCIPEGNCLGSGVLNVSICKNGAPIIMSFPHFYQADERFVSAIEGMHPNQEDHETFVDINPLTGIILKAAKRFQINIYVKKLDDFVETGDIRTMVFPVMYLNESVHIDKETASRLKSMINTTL

[2] = biological target: T1, Purified luminal domain LIMP-2 …; assay: peptide binding to ldLIMP-2 at pH 6.8 (FIG. 9)
[3] = biological target: T2, LIMP-2 in Gba1-/- fibroblasts (endogenous, detected by anti-LIMP2 immunofluorescence) (UniProt O35114 1-478, limits assumed); assay: cell-based or functional assay
T2 sequence (looked up): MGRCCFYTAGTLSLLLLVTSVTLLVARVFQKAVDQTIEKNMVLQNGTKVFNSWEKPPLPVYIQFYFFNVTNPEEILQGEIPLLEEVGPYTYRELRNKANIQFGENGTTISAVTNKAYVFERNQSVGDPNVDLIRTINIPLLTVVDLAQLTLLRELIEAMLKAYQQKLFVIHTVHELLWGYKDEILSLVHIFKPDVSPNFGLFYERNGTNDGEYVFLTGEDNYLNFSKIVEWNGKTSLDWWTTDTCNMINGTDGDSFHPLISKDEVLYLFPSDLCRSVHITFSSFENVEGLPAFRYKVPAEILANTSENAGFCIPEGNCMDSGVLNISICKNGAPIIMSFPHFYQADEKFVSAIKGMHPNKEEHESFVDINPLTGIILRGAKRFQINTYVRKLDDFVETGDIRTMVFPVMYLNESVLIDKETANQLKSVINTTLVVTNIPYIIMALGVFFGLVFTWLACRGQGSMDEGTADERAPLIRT

[4] = biological target: T1, Purified luminal domain LIMP-2 …; assay: in vitro immunoprecipitation of purified GCase with ldLIMP-2 (1:1) on anti-LIMP2 beads, immunoblot (FIG. 6B)
Text: Immunoprecipitation of GCases with mutations in the TKD sequence: For immunoblots, Gba1 knockout mouse fibroblasts (null/null) were transfected with the GBA1 constructs (WT or mutants) and expressed for 5 days. The GCases from harvested cell lysates were purified using a GCase antibody affinity column (Dynabeads protein G crosslinked (BS3) with rabbit anti-human GCase antibody). […] Aliquots of each step (loading, wash and eluent) were collected and analyzed on 12.5% SDS gels. Immunoblots were developed using anti-human GCase antibody and AP conjugated color development kits. Mock experiments with either non-LIMP2 proteins added or no GCases added, were used as control. The quantitations of these immunoprecipitation data were obtained from densitometry measurements of the gels. The no-LIMP-2 bars are the controls for comparison, since GCase was processed through all steps without LIMP-2 to account for any losses of GCase; About 50% of the GCase was lost during processing.

[5] = biological target: T1, Purified luminal domain LIMP-2 …; assay: fluorescence polarization, FITC peptide titrated, ldLIMP2 fixed at 50 nM (FIG. 7A)
Method: FIG. 7A-FIG. 7C: Binding and competition of fluorescent labeled or unlabeled DSPIIV (SEQ ID NO 15) GCase peptides to ldLIMP2. The change (δmP) in fluorescence polarization is plotted on the ordinate and the increasing concentrations of the various peptides are on the abscissa. FIG. 7A depicts saturation kinetics under conditions in which the concentration of ldLIMP2 (50 nM) was fixed. […] FIG. 7B depicts a similar study using unlabeled peptides as competitors. […] Each of the unlabeled peptides “competed” with the labeled peptides in the expected ratios. FIG. 7C depicts a competition study in which labeled (WT*) and unlabeled (WT) peptides were used in complementary competition studies.
Fluorescence Polarization: The DSPIIV (SEQ ID NO 15) and its mutants, and DDQRLLL (SEQ ID NO 14) peptides (FITC labeled or non-labeled) were synthesized (American Peptide Co., Vista, Calif.). Lyophilized peptides were solubilized in acetonitrile and then were diluted at least 10,000-fold into the reactions for fluorescence polarization assessments. The reactions were done at least in duplicate at various peptide and LIMP-2 concentrations (SpectraMax M5, Molecular Device). Fluorescence polarization data were collected and analyzed with SoftMax Pro 5.0 software. Reaction mixtures contained 100 mM phosphate, pH 6.8 and 1 mM DTT.

| Binder | % Secreted [3] [%] | other results |
| --- | --- | --- |
| ASPAAV-{FITC′} (also called ASPAAP) [ASPAAV peptide (triple mutant: alanines for D399, I402 and I403), FITC labeled] | – | binding relative to WT [1]: < 10 % of WT; percent decrease in binding [2]: ~90% |
| B1 | 36 | – |
| B2 | 22 | – |
| B3 | 23 | – |
| B4 | 83 | – |
| B5 | – | binding result [4]: no binding |
| DSPIIV-{FITC′} (also called WT peptide; WT*) [DSPIIV (SEQ ID NO 15) GCase peptide, FITC labeled] | – | EC50 [5]: ~50 nM |
